Test results published in US20220204611A1 (Amgen, published 2022).

Experiments:
human TREM2 [1] = target: T1, human TREM2 (human, UniProt Q9NZC2 19-174, limits assumed); test: yeast-displayed Fab FACS, 2nd screen 100 nM
T1 sequence: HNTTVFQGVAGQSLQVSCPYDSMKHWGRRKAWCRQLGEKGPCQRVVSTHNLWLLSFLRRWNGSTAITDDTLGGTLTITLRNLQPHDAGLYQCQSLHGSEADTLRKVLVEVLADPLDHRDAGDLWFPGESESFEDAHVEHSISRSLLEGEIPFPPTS

human TREM2 [2] = target: T1, human TREM2; test: yeast-displayed Fab FACS, 1st screen 110 nM

| Binder | binding signal fold over 6E7 parental (human TREM2 [1]) [fold] | binding signal fold over 6E7 parental (human TREM2 [2]) [fold] |
| --- | --- | --- |
| V6 (Fab, V domains shown) VH: EVQLVQSGAEVKKPGESLKISCKGSGYSFTSMWIAWVRQMPGKGLEWMGIIYPGDSDTRYSPSFQGQVTISADKSISTAYLQWSSLKASDTAMYFCARQRTFYYDSSDYFDYWGQGTLVTVSS VL: DIQMTQSPSSVSASVGDRVTITCRASQGISSWLAWYQQKPGKAPKLLIYAASSLQNGVPSRFSGSGSGTDFTLTISSLQPEDFATYFCQQADSFPRTFGQGTKLEIK | 0.56 | 0.2 |
| V18 (Fab, V domains shown) VH: EVQLVQSGAEVKKPGESLKISCKGSGYSFTSYHIAWVRQMPGKGLEWMGIIYPGDSDTRYSPSFQGQVTISADKSISTAYLQWSSLKASDTAMYFCARQRTFYYDSSDYFDYWGQGTLVTVSS VL: DIQMTQSPSSVSASVGDRVTITCRASQGISSWLAWYQQKPGKAPKLLIYAASSLQNGVPSRFSGSGSGTDFTLTISSLQPEDFATYFCQQADSFPRTFGQGTKLEIK | 0.42 | 0.17 |
| V23 (Fab, V domains shown) VH: EVQLVQSGAEVKKPGESLKISCKGSGYSFTSYWIAWVRQMPGKGLEWMGIIYPGDSDTRYSPSFQGQVTISADKSISTAYLQWSSLKASDTAMYFCARQRTFYYDSSDYFDYWGQGTLVTVSS VL: DIQMTQSPSSVSASVGDRVTITCRASQGISSWLAWYQQKPGKAPKLLIYAASSLQNGVPSRFSGSGSGTDFTLTISSLQPEDFATYFCQQADSFPLTFGQGTKLEIK | 0.4 | 0.4 |
| V34 (Fab, V domains shown) VH: EVQLVQSGAEVKKPGESLKISCKGSGYSFTSYWIAWVRQMPGKGLEWMGIIYPGDSDTRYSPSFQGQVTISADKSISTAYLQWSSLKASDTAMYFCARQRTFYYDSSDYFDYWGQGTLVTVSS VL: DIQMTQSPSSVSASVGDRVTITCRASQGISSWLAWYQQKPGKAPKLLIYAASSLQDGVPSRFSGSGSGTDFTLTISSLQPEDFATYFCQQADSFPRTFGQGTKLEIK | 1.02 | 0.34 |
| V22 (Fab, V domains shown) VH: EVQLVQSGAEVKKPGESLKISCKGSGYSFTSYWIAWVRQMPGKGLEWMGIIYPGDSDTRYSPSFQGQVTISADKSISTAYLQWSSLKASDTAMYFCARQRTFYYDSSDYFDYWGQGTLVTVSS VL: DIQMTQSPSSVSASVGDRVTITCRASQGISSWLAWYQQKPGKAPKLLIYRASSLQNGVPSRFSGSGSGTDFTLTISSLQPEDFATYFCQQADSFPRTFGQGTKLEIK | 0.71 | 0.3 |
| V32 (Fab, V domains shown) VH: EVQLVQSGAEVKKPGESLKISCKGSGYSFTSYWIAWVRQMPGKGLEWMGIIYPGDSDTRYSNSFQGQVTISADKSISTAYLQWSSLKASDTAMYFCARQRTFYYDSSDYFDYWGQGTLVTVSS VL: DIQMTQSPSSVSASVGDRVTITCRASQGISSWLAWYQQKPGKAPKLLIYAASSLQNGVPSRFSGSGSGTDFTLTISSLQPEDFATYFCQQADSFPRTFGQGTKLEIK | 0.89 | 0.82 |
| V8 (Fab, V domains shown) VH: EVQLVQSGAEVKKPGESLKISCKGSGYSFTSYWIAWVRQMPGKGLEWMGIIYPGDSDTKYSPSFQGQVTISADKSISTAYLQWSSLKASDTAMYFCARQRTFYYDSSDYFDYWGQGTLVTVSS VL: DIQMTQSPSSVSASVGDRVTITCRASQGISSWLAWYQQKPGKAPKLLIYAASSLQNGVPSRFSGSGSGTDFTLTISSLQPEDFATYFCQQADSFPRTFGQGTKLEIK | 0.77 | 0.28 |
| V7 (Fab, V domains shown) VH: EVQLVQSGAEVKKPGESLKISCKGSGYSFTSEWIAWVRQMPGKGLEWMGIIYPGDSDTRYSPSFQGQVTISADKSISTAYLQWSSLKASDTAMYFCARQRTFYYDSSDYFDYWGQGTLVTVSS VL: DIQMTQSPSSVSASVGDRVTITCRASQGISSWLAWYQQKPGKAPKLLIYAASSLQNGVPSRFSGSGSGTDFTLTISSLQPEDFATYFCQQADSFPRTFGQGTKLEIK | 0.32 | 0.11 |
| V9 (Fab, V domains shown) VH: EVQLVQSGAEVKKPGESLKISCKGSGYSFTSYWIAWVRQMPGKGLEWMGIIYPGDSDTRYSPSFQGQVTISADKSISTAYLQWSSLKASDTAMYFCARQRGFYYDSSDYFDYWGQGTLVTVSS VL: DIQMTQSPSSVSASVGDRVTITCRASQGISSWLAWYQQKPGKAPKLLIYAASSLQNGVPSRFSGSGSGTDFTLTISSLQPEDFATYFCQQADSFPRTFGQGTKLEIK | 0.54 | 0.67 |
| V10 (Fab, V domains shown) VH: EVQLVQSGAEVKKPGESLKISCKGSGYSFTSYWIAWVRQMPGKGLEWMGIIYPGDSDTRYSPSFQGQVTISADKSISTAYLQWSSLKASDTAMYFCARQRTFYYDSSDYFDYWGQGTLVTVSS VL: DIQMTQSPSSVSASVGDRVTITCRASQGISSWLAWYQQKPGKAPKLLIYSASSLQNGVPSRFSGSGSGTDFTLTISSLQPEDFATYFCQQADSFPRTFGQGTKLEIK | 0.7 | 0.76 |
| V30 (Fab, V domains shown) VH: EVQLVQSGAEVKKPGESLKISCKGSGSSFTSYWIAWVRQMPGKGLEWMGIIYPGDSDTRYSPSFQGQVTISADKSISTAYLQWSSLKASDTAMYFCARQRTFYYDSSDYFDYWGQGTLVTVSS VL: DIQMTQSPSSVSASVGDRVTITCRASQGISSWLAWYQQKPGKAPKLLIYAASSLQNGVPSRFSGSGSGTDFTLTISSLQPEDFATYFCQQADSFPRTFGQGTKLEIK | 0.72 | 0.79 |
| V33 (Fab, V domains shown) VH: EVQLVQSGAEVKKPGESLKISCKGSGYSFTSYWIAWVRQMPGKGLEWMGIIYPGDSDTRYSPSFQGQVTISADKSISTAYLQWSSLKASDTAMYFCARQRTFYGDSSDYFDYWGQGTLVTVSS VL: DIQMTQSPSSVSASVGDRVTITCRASQGISSWLAWYQQKPGKAPKLLIYAASSLQNGVPSRFSGSGSGTDFTLTISSLQPEDFATYFCQQADSFPRTFGQGTKLEIK | 0.34 | 0.23 |
| V21 (Fab, V domains shown) VH: EVQLVQSGAEVKKPGESLKISCKGSGYSFTSYWIAWVRQMPGKGLEWMGIIYPGDSDTRYSPSFQGQVTISADKSISTAYLQWSSLKASDTAMYFCARQRTFYYDSSDFFDYWGQGTLVTVSS VL: DIQMTQSPSSVSASVGDRVTITCRASQGISSWLAWYQQKPGKAPKLLIYAASSLQNGVPSRFSGSGSGTDFTLTISSLQPEDFATYFCQQADSFPRTFGQGTKLEIK | 0.68 | 0.76 |
| V42 (Fab, V domains shown) VH: EVQLVQSGAEVKKPGESLKISCKGSGYSFTSAWIAWVRQMPGKGLEWMGIIYPGDSDTRYSPSFQGQVTISADKSISTAYLQWSSLKASDTAMYFCARQRTFYYDSSDYFDYWGQGTLVTVSS VL: DIQMTQSPSSVSASVGDRVTITCRASQGISSWLAWYQQKPGKAPKLLIYAASSLQNGVPSRFSGSGSGTDFTLTISSLQPEDFATYFCQQADSFPRTFGQGTKLEIK | 0.41 | 0.45 |
| V11 (Fab, V domains shown) VH: EVQLVQSGAEVKKPGESLKISCKGSGYSFTSYWIAWVRQMPGKGLEWMGIIYPGDSDTRYSPSFQGQVTISADKSISTAYLQWSSLKASDTAMYFCARQRTFYYDSSDYFDYWGQGTLVTVSS VL: DIQMTQSPSSVSASVGDRVTITCRASQGISSWLAWYQQKPGKAPKLLIYAASSLQNGVPSRFSGSGSGTDFTLTISSLQPEDFATYFCQQAASFPRTFGQGTKLEIK | 0.42 | 0.79 |
| V19 (Fab, V domains shown) VH: EVQLVQSGAEVKKPGESLKISCKGSGYSFTSSWIAWVRQMPGKGLEWMGIIYPGDSDTRYSPSFQGQVTISADKSISTAYLQWSSLKASDTAMYFCARQRTFYYDSSDYFDYWGQGTLVTVSS VL: DIQMTQSPSSVSASVGDRVTITCRASQGISSWLAWYQQKPGKAPKLLIYAASSLQNGVPSRFSGSGSGTDFTLTISSLQPEDFATYFCQQADSFPRTFGQGTKLEIK | 0.48 | 0.59 |
| V20 (Fab, V domains shown) VH: EVQLVQSGAEVKKPGESLKISCKGSGYSFTSYWIAWVRQMPGKGLEWMGRIYPGDSDTRYSPSFQGQVTISADKSISTAYLQWSSLKASDTAMYFCARQRTFYYDSSDYFDYWGQGTLVTVSS VL: DIQMTQSPSSVSASVGDRVTITCRASQGISSWLAWYQQKPGKAPKLLIYAASSLQNGVPSRFSGSGSGTDFTLTISSLQPEDFATYFCQQADSFPRTFGQGTKLEIK | 0.52 | 0.18 |
| V31 (Fab, V domains shown) VH: EVQLVQSGAEVKKPGESLKISCKGSGYSFTSYWIAWVRQMPGKGLEWMGIIYPGDSETRYSPSFQGQVTISADKSISTAYLQWSSLKASDTAMYFCARQRTFYYDSSDYFDYWGQGTLVTVSS VL: DIQMTQSPSSVSASVGDRVTITCRASQGISSWLAWYQQKPGKAPKLLIYAASSLQNGVPSRFSGSGSGTDFTLTISSLQPEDFATYFCQQADSFPRTFGQGTKLEIK | 0.73 | 0.61 |
| V35 (Fab, V domains shown) VH: EVQLVQSGAEVKKPGESLKISCKGSGYSFTSYWIAWVRQMPGKGLEWMGIIYPGDSDTRYSPSFQGQVTISADKSISTAYLQWSSLKASDTAMYFCARQRTFYYDSSDYFDYWGQGTLVTVSS VL: DIQMTQSPSSVSASVGDRVTITCRASQGISSWLAWYQQKPGKAPKLLIYAASSLQNGVPSRFSGSGSGTDFTLTISSLQPEDFATYFCQQAYSFPRTFGQGTKLEIK | 0.29 | 0.21 |
